{
  "source": "patent US20240336909",
  "proteins": {"B1": {"name": "MMP-12 (protein)", "chain": "GPVWRKHYITYRINNYTPDMNREDVDYAIRKAFQVWSNVTPLKFSKINTGMADILVVFARGAHGDFHAFDGKGGILAHAFGPGSGIGGDAHFDEDEFWTTHSGGTNLFLTAVHEIGHSLGLGHSSDPKAVMFPTYKYVDINTFRLSADDIRGIQSLYGDPKENQRLPNPDNSEPALCDPNLSFDAVTTVGNKIFFFKDRFFWLKVSERPKTSVNLISSLWPTLPSGIEAAYEIEARNQVFLFKDDKYWLISNLRPEPNYPKSIHSFGFPNFVKKIDAAVFNPRFYRTYFFVDNQYWRYDERRQMMDPGYPKLITKNFQGIGPKIDAVFYSKNKYYYFFQGSNQFEYDFLLQRITKTLKSNSWFGC"}},
  "key": {"[1]": {"target": "AxCT mask27 EGFR EH104 L001 version 1"}, "[2]": {"target": "AxCT mask27 EGFR EH104 L040 version 1"}, "[3]": {"target": "AxCT mask27 EGFR EH104 L041 version 1"}, "[4]": {"target": "AxCT mask27 EGFR EH104 L043 version 1"}, "[5]": {"target": "AxCT mask27 EGFR EH104 L054 version 1"}, "[6]": {"target": "AxCT mask27 EGFR EH104 L055 version 1"}, "[7]": {"target": "AxCT mask27 EGFR EH104 L056 version 1"}, "[8]": {"target": "AxCT mask27 EGFR EH104 L057 version 1"}, "[9]": {"target": "AxCT mask27 EGFR EH104 L058 version 1"}, "[10]": {"target": "AxCT mask27 EGFR EH104 L059 version 1"}, "[11]": {"target": "AxCT mask27 EGFR EH104 L060 version 1"}, "[12]": {"target": "AxCT mask27 EGFR EH104 L061 version 1"}, "[13]": {"target": "AxCT mask27 EGFR EH104 L062 version 1"}, "[14]": {"target": "AxCT mask27 EGFR EH104 L063 version 1"}, "[15]": {"target": "AxCT mask27 EGFR EH104 L064 version 1"}, "[16]": {"target": "AxCT mask27 EGFR EH104 L065 version 1"}, "[17]": {"target": "AxCT mask27 EGFR EH104 L066 version 1"}, "[18]": {"target": "AxCT mask27 EGFR EH104 L067 version 1"}, "[19]": {"target": "AxCT mask27 EGFR EH104 L068 version 1"}, "[20]": {"target": "AxCT mask27 EGFR EH104 L069 version 1"}, "[21]": {"target": "AxCT mask27 EGFR EH104 L070 version 1"}, "[22]": {"target": "AxCT mask27 EGFR EH104 L071 version 1"}, "[23]": {"target": "AxCT mask27 EGFR EH104 L072 version 1"}, "[24]": {"target": "AxCT mask27 EGFR EH104 L073 version 1"}, "[25]": {"target": "AxCT mask27 EpCAM H90 L001 version 1"}, "[26]": {"target": "AxCT mask27 EpCAM H90.2 L040 version 1"}, "[27]": {"target": "AxCT mask27 EpCAM H90.2 L041 version 1"}, "[28]": {"target": "AxCT mask27 EpCAM H90.2 L043 version 1"}, "[29]": {"target": "AxCT mask27 EpCAM H90.2 L059 version 1"}, "[30]": {"target": "AxCT mask27 EpCAM H90.2 L060 version 1"}, "[31]": {"target": "AxCT mask27 EpCAM H90.2 L061 version 1"}, "[32]": {"target": "AxCT mask27 EpCAM H90.2 L063 version 1"}, "[33]": {"target": "AxCT mask27 EpCAM H90.2 L064 version 1"}, "[34]": {"target": "AxCT mask27 EpCAM H90.2 L073 version 1"}, "[35]": {"target": "AxCT mask27 EpCAM H90.2 L075 version 1"}, "[36]": {"target": "AxCT mask27 EpCAM H90.2 L076 version 1"}, "[37]": {"target": "AxCT mask27 EpCAM H90.2 NCLV"}},
  "data": [
    {"protein": "B1", "values": [
      {"measurement": "Percent cleavage", "setting": "[1]", "value": 68, "unit": "%"},
      {"measurement": "Percent cleavage", "setting": "[2]", "value": 13, "unit": "%"},
      {"measurement": "Percent cleavage", "setting": "[3]", "value": 0, "unit": "%"},
      {"measurement": "Percent cleavage", "setting": "[4]", "value": 0, "unit": "%"},
      {"measurement": "Percent cleavage", "setting": "[5]", "value": 30, "unit": "%"},
      {"measurement": "Percent cleavage", "setting": "[6]", "value": 72, "unit": "%"},
      {"measurement": "Percent cleavage", "setting": "[7]", "value": 12, "unit": "%"},
      {"measurement": "Percent cleavage", "setting": "[8]", "value": 18, "unit": "%"},
      {"measurement": "Percent cleavage", "setting": "[9]", "value": 9, "unit": "%"},
      {"measurement": "Percent cleavage", "setting": "[10]", "value": 62, "unit": "%"},
      {"measurement": "Percent cleavage", "setting": "[11]", "value": 18, "unit": "%"},
      {"measurement": "Percent cleavage", "setting": "[12]", "value": 49, "unit": "%"},
      {"measurement": "Percent cleavage", "setting": "[13]", "value": 51, "unit": "%"},
      {"measurement": "Percent cleavage", "setting": "[14]", "value": 31, "unit": "%"},
      {"measurement": "Percent cleavage", "setting": "[15]", "value": 34, "unit": "%"},
      {"measurement": "Percent cleavage", "setting": "[16]", "value": 68, "unit": "%"},
      {"measurement": "Percent cleavage", "setting": "[17]", "value": 16, "unit": "%"},
      {"measurement": "Percent cleavage", "setting": "[18]", "value": 26, "unit": "%"},
      {"measurement": "Percent cleavage", "setting": "[19]", "value": 9, "unit": "%"},
      {"measurement": "Percent cleavage", "setting": "[20]", "value": 63, "unit": "%"},
      {"measurement": "Percent cleavage", "setting": "[21]", "value": 19, "unit": "%"},
      {"measurement": "Percent cleavage", "setting": "[22]", "value": 51, "unit": "%"},
      {"measurement": "Percent cleavage", "setting": "[23]", "value": 48, "unit": "%"},
      {"measurement": "Percent cleavage", "setting": "[24]", "value": 31, "unit": "%"},
      {"measurement": "Percent cleavage", "setting": "[25]", "value": 91, "unit": "%"},
      {"measurement": "Percent cleavage", "setting": "[26]", "value": 0, "unit": "%"},
      {"measurement": "Percent cleavage", "setting": "[27]", "value": 0, "unit": "%"},
      {"measurement": "Percent cleavage", "setting": "[28]", "value": 0, "unit": "%"},
      {"measurement": "Percent cleavage", "setting": "[29]", "value": 71, "unit": "%"},
      {"measurement": "Percent cleavage", "setting": "[30]", "value": 16, "unit": "%"},
      {"measurement": "Percent cleavage", "setting": "[31]", "value": 64, "unit": "%"},
      {"measurement": "Percent cleavage", "setting": "[32]", "value": 33, "unit": "%"},
      {"measurement": "Percent cleavage", "setting": "[33]", "value": 36, "unit": "%"},
      {"measurement": "Percent cleavage", "setting": "[34]", "value": 36, "unit": "%"},
      {"measurement": "Percent cleavage", "setting": "[35]", "value": 0, "unit": "%"},
      {"measurement": "Percent cleavage", "setting": "[36]", "value": 0, "unit": "%"},
      {"measurement": "Percent cleavage", "setting": "[37]", "value": 0, "unit": "%"}
    ]}
  ]
}
